Where two headings read alike, the source gives them in different places.

Experimental findings from article PMC5790001 are described below.

Assay [1] concerns the target CCR5 (human (endogenous in PM1 cells and MDM)) (UniProt P51681).
Assay [2] shares this target. The source holds these as a separate data set.
Assay [3] has the same target. This is another data set of the same source.
For assay [4] the target is unchanged. The source holds these as a separate data set.
Assay [5] deals with human CCR5 on CHO-CD4-CCR5 cells (human) (UniProt P51681).

In assay [1], “5p12 E66S (from UniProt P13501 24-91) (ligand)” returned an other of 18 pM.

“5p12 F12Y/A13V (from UniProt P13501 24-91) (ligand)” gave an other in assay [1] of 30 pM. “5p12 F12Y/A13V/Y27W/F28W/E66S (CCL5 5p12 5 m) (L. jensenii) (from UniProt P13501 24-91) (ligand)” displayed an other in assay [1] of 5.5 pM.

In turn, “5p12 Y27W (from UniProt P13501 24-91) (ligand)” registered an other in assay [1] of 17 pM. In assay [1], “5p12 Y27W/F28W (from UniProt P13501 24-91) (ligand)” came in with an other of 8.2 pM. In the case of “5p12 Y27W/F28W/E66S (from UniProt P13501 24-91) (ligand)”, the other in assay [1] was 7.7 pM. In turn, “5p12-RANTES (E. coli) (from UniProt P13501 24-91) (ligand)” yielded an other in assay [2] of 21 pM. In assay [1], “6p4 F12Y/A13V/Y27W/F28W/E66S (CCL5 6p4 5 m) (L. jensenii) (from UniProt P13501 24-91) (ligand)” yielded an other of 4.7 pM. Take “6p4-RANTES (E. coli) (from UniProt P13501 24-91) (ligand)”: the other in assay [2] amounted to 35 pM. “6p4-RANTES (L. jensenii) (from UniProt P13501 24-91) (ligand)” gave an other in assay [1] of 30 pM. As for “C1C5 27W/28 W (from UniProt P13501 24-91) (ligand)”, the other in assay [1] was found to be 833 pM. Same read-out and setting: under “C1C5 E66S (from UniProt P13501 24-91) (ligand)” stands 1600 pM; under “C1C5 Y27W (from UniProt P13501 24-91) (ligand)”, 3700 pM; under “C1C5 Y27W/F28W/E66S (from UniProt P13501 24-91) (ligand)”, 640 pM.

Turning to “CCL5 5p12 5 m (E. coli) (from UniProt P13501 24-91) (ligand)”, the other in assay [2] is 6.1 pM. In assay [3], this substance had an IC50 of inhibition of HIV-1BaL infection in human monocyte-derived macrophages (MDM); blocks HIV-1 entry through CCR5 of 14.2 pM; an IC50 of inhibition of the primary R5 HIV-1 strain 98IN007 (clade C), acute infection assay in PM1 cells; blocks HIV-1 entry through CCR5 of 7.6 pM; an IC50 of inhibition of the primary R5 HIV-1 strain 5513 (clade B), acute infection assay in PM1 cells; blocks HIV-1 entry through CCR5 of 15.5 pM. Turning to “CCL5 5p12 5 m (total chemical synthesis) (from UniProt P13501 24-91) (ligand)”, the IC50 of HIV-1BaL inhibition, acute infection assay, protein from total chemical synthesis; blocks HIV-1 entry through CCR5 in assay [4] amounted to 3.9 pM. Regarding “CCL5 6p4 5 m (E. coli) (from UniProt P13501 24-91) (ligand)”, in assay [2], the other amounted to 7.9 pM. For the same substance, in assay [5], the percent of surface CCR5 internalized, flow cytometry (mAb 3A9) of CHO-CD4-CCR5 cells treated with 100 nM ligand, 4 h, 37 °C is 70%.

In assay [4], “CCL5 6p4 5 m (total chemical synthesis) (from UniProt P13501 24-91) (ligand)” had an IC50 of HIV-1BaL inhibition, acute infection assay, protein from total chemical synthesis; blocks HIV-1 entry through CCR5 of 3.9 pM. For “CCL5 A13F (from UniProt P13501 24-91) (ligand)”, in assay [1], the other stood at 92 pM. “CCL5 A13M (from UniProt P13501 24-91) (ligand)” registered an other in assay [1] of 256 pM. In assay [1], “CCL5 A13P (from UniProt P13501 24-91) (ligand)” came in with an other above 1000 pM. The substance “CCL5 A13V (from UniProt P13501 24-91) (ligand)” displayed an other in assay [1] of 86 pM.

“CCL5 A13W (from UniProt P13501 24-91) (ligand)” showed an other in assay [1] of 169 pM. In assay [1], “CCL5 A13Y (from UniProt P13501 24-91) (ligand)” displayed an other of 78 pM. In assay [1], “CCL5 E66S (from UniProt P13501 24-91) (ligand)” gave an other of 190 pM. The same measure, in the same setting: next, “CCL5 F12P (from UniProt P13501 24-91) (ligand)”: above 1000 pM; “CCL5 F12W (from UniProt P13501 24-91) (ligand)”: above 6500 pM. On the same count and under the same terms, next, “CCL5 F12Y/A13V (from UniProt P13501 24-91) (ligand)”: 179 pM; “CCL5 F12Y/A13V/Y27W/F28W (CCL5 4 m) (from UniProt P13501 24-91) (ligand)”: 115 pM; “CCL5 F12Y/A13V/Y27W/F28W/E66S (CCL5 5 m) (L. jensenii) (from UniProt P13501 24-91) (ligand)”: 34 pM.

Consider “CCL5 F28W (from UniProt P13501 24-91) (ligand)”, for which the other in assay [1] is 162 pM. Turning to “CCL5 Y27W (from UniProt P13501 24-91) (ligand)”, the other in assay [1] amounted to 255 pM. With “CCL5 Y27W/F28W (from UniProt P13501 24-91) (ligand)”, the other in assay [1] is 95 pM. In turn, “CCL5 Y27W/F28W/E66S (from UniProt P13501 24-91) (ligand)” returned an other in assay [1] of 46 pM.

In the case of “wt CCL5 (E. coli) (from UniProt P13501 24-91) (ligand)”, the IC50 (pM) of HIV-1BaL inhibition, acute infection assay in PM1 cells (p24), protein purified from E. coli; blocks HIV-1 entry through CCR5 in assay [2] worked out at 810 pM. In addition, in assay [5], the percent of surface CCR5 internalized, flow cytometry (mAb 3A9) of CHO-CD4-CCR5 cells treated with 100 nM ligand, 4 h, 37 °C worked out at 55%.
